From US20240228572A1 (I2O THERAPEUTICS, published 2024)
*1 amine or outer side, *2 acyl side, *3 side chain or, on linkers, in order; H or OH if unused. Bridges are numbered along the chain shown (N, C = ends). Primed or numbered codes have the meaning given here. Where no end group is shown, it is not given here. Side-chain parts run from the residue outwards. [ ]: non-standard residue; d: D form. The star is where a group is joined. dpeg″ = spacer —[CO(CH2)O(CH2)2O(CH2)NH]—, O=C(COCCOCN[*:1])[*:2]; dpeg = —[CO(CH2)O(CH2)2O(CH2)NH]— spacer, O=C(COCCOCN[*:1])[*:2]; C20 diacid = O=C(O)CCCCCCCCCCCCCCCCCCC(=O)*; γGlu = O=C(O)[C@H](CCC(=O)[*:2])N[*:1]; NMeE = CN[C@@H](CCC(=O)O)C(=O)O; Aib = CC(C)(N)C(=O)O

Tests used:
[1] = biological target: human Glucagon receptor (GCGR) (human, UniProt P47871 26-477); assay: cell-based or functional assay
[2] = biological target: human GLP-1 receptor (GLP-1R) (human, UniProt P43220 24-463); assay: cell-based or functional assay
human GLP-1 receptor (GLP-1R), sequence (P43220 24-463): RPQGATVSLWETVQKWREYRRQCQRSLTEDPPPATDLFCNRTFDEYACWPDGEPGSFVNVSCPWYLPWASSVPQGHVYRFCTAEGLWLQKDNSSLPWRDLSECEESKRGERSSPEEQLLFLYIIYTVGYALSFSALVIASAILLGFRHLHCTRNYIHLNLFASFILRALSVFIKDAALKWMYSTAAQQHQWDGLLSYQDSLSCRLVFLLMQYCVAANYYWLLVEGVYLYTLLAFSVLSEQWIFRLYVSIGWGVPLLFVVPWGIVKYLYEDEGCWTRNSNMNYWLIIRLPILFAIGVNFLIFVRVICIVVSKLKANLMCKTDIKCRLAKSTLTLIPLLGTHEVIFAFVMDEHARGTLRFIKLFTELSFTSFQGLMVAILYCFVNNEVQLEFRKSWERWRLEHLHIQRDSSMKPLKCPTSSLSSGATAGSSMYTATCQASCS

YSHGTFTSDYSKYLDK([γGlu-γGlu-dpeg″-C20 diacid])KYAEKFVKWLEEEPSSGAPPPS-OH (lactam 20-24) [Compound A25]
pEC50, cAMP accumulation [1]: 11.9 pEC50 (-log M)
pEC50, cAMP accumulation [2]: < 9 pEC50 (-log M)

B1: Compound A14 (peptide)
peptide: YSHGTFTSDYSKYLD[Aib]KYAQK([γGlu-γGlu-C20 diacid])FV[Aib]WLEDEPSSGAPPPS-OH
modifications: N-terminus assumed
SMILES: CC(C)C[C@H](NC(=O)[C@H](Cc1ccc(O)cc1)NC(=O)[C@H](CCCCN)NC(=O)[C@H](CO)NC(=O)[C@H](Cc1ccc(O)cc1)NC(=O)[C@H](CC(=O)O)NC(=O)[C@H](CO)NC(=O)[C@@H](NC(=O)[C@H](Cc1ccccc1)NC(=O)[C@@H](NC(=O)CNC(=O)[C@H](Cc1c[nH]cn1)NC(=O)[C@H](CO)NC(=O)[C@@H](N)Cc1ccc(O)cc1)[C@@H](C)O)[C@@H](C)O)C(=O)N[C@@H](CC(=O)O)C(=O)NC(C)(C)C(=O)N[C@@H](CCCCN)C(=O)N[C@@H](Cc1ccc(O)cc1)C(=O)N[C@@H](C)C(=O)N[C@@H](CCC(N)=O)C(=O)N[C@@H](CCCCNC(=O)CC[C@H](NC(=O)CC[C@H](NC(=O)CCCCCCCCCCCCCCCCCCC(=O)O)C(=O)O)C(=O)O)C(=O)N[C@@H](Cc1ccccc1)C(=O)N[C@H](C(=O)NC(C)(C)C(=O)N[C@@H](Cc1c[nH]c2ccccc12)C(=O)N[C@@H](CC(C)C)C(=O)N[C@@H](CCC(=O)O)C(=O)N[C@@H](CC(=O)O)C(=O)N[C@@H](CCC(=O)O)C(=O)N1CCC[C@H]1C(=O)N[C@@H](CO)C(=O)N[C@@H](CO)C(=O)NCC(=O)N[C@@H](C)C(=O)N1CCC[C@H]1C(=O)N1CCC[C@H]1C(=O)N1CCC[C@H]1C(=O)N[C@@H](CO)C(=O)O)C(C)C
pEC50, cAMP accumulation [1]: 11.2 pEC50 (-log M)
pEC50, cAMP accumulation [2]: < 9 pEC50 (-log M)

YSHGTFTSDYSKYLDK([γGlu-γGlu-dpeg″-C20 diacid])KYAEKFVKWLESEPSSGAPPPS-OH (lactam 20-24) [Compound A28]
pEC50, cAMP accumulation [1]: 11.7 pEC50 (-log M)
pEC50, cAMP accumulation [2]: < 9 pEC50 (-log M)

YSHGTFTSDYSKYLDK([γGlu-γGlu-dpeg-C20 diacid])KYAQEFV[Aib]WLENEPSSGAPPPS-OH [Compound A16]
pEC50, cAMP accumulation [1]: 12.2 pEC50 (-log M)
pEC50, cAMP accumulation [2]: < 9 pEC50 (-log M)

YSHGTFTSDYSKYLDK([γGlu-γGlu-dpeg-C20 diacid])KYAKEFV[Aib]WLESEPSSGAPPPS-OH [Compound A22]
pEC50, cAMP accumulation [1]: 11.7 pEC50 (-log M)
pEC50, cAMP accumulation [2]: < 9 pEC50 (-log M)

YSHGTFTSDYSKYLDK([γGlu-γGlu-dpeg-C20 diacid])KYAQEFV[Aib]WLEEEPSSGAPPPS-OH [Compound A15]
pEC50, cAMP accumulation [1]: 12.1 pEC50 (-log M)
pEC50, cAMP accumulation [2]: < 9 pEC50 (-log M)

YSHGTFTSDYSKYLDK([γGlu-γGlu-dpeg″-C20 diacid])KYAEKFVKWLENEPSSGAPPPS-OH (lactam 20-24) [Compound A27]
pEC50, cAMP accumulation [1]: 12 pEC50 (-log M)
pEC50, cAMP accumulation [2]: < 9 pEC50 (-log M)

YSHGTFTSDYSKYLDK([γGlu-γGlu-dpeg-C20 diacid])KYASEFV[Aib]WLESEPSSGAPPPS-OH [Compound A24]
pEC50, cAMP accumulation [1]: 12.5 pEC50 (-log M)
pEC50, cAMP accumulation [2]: < 9 pEC50 (-log M)

YSHGTFTSDYSKYLDK([γGlu-γGlu-dpeg-C20 diacid])KYAQEFV[Aib]WLESEPSSGAPPPS-OH [Compound A19]
pEC50, cAMP accumulation [1]: 12.1 pEC50 (-log M)
pEC50, cAMP accumulation [2]: < 9 pEC50 (-log M)

YSHGTFTSDYSKYLDK([γGlu-γGlu-dpeg-C20 diacid])KYAQEFV[Aib]WLE[NMeE]EPSSGAPPPS-OH [Compound A18]
pEC50, cAMP accumulation [1]: 10.4 pEC50 (-log M)
pEC50, cAMP accumulation [2]: < 9 pEC50 (-log M)

YSHGTFTSDYSKYLDK([γGlu-γGlu-dpeg″-C20 diacid])KYAEKFVKWLEDEPSSGEPPPS-OH (lactam 20-24) [Compound A31]
pEC50, cAMP accumulation [1]: 11.9 pEC50 (-log M)
pEC50, cAMP accumulation [2]: < 9 pEC50 (-log M)

YSHGTFTSDYSKYLD[Aib]KYAQK([γGlu-γGlu-dpeg″-C20 diacid])FVKWLEDEPSSGAPPPS-OH (lactam 24-28) [Compound A30]
pEC50, cAMP accumulation [1]: 12.5 pEC50 (-log M)
pEC50, cAMP accumulation [2]: < 9 pEC50 (-log M)

YSHGTFTSDYSKYLDK([γGlu-γGlu-dpeg-C20 diacid])KYAQEFV[Aib]WLEQEPSSGAPPPS-OH [Compound A17]
pEC50, cAMP accumulation [1]: 12.1 pEC50 (-log M)
pEC50, cAMP accumulation [2]: < 9 pEC50 (-log M)

YSHGTFTSDYSKYLDK([γGlu-γGlu-dpeg-C20 diacid])KYAEEFV[Aib]WLESEPSSGAPPPS-OH [Compound A23]
pEC50, cAMP accumulation [1]: 11.5 pEC50 (-log M)
pEC50, cAMP accumulation [2]: < 9 pEC50 (-log M)

YSHGTFTSDYSKYLDK([γGlu-γGlu-dpeg-C20 diacid])KYAQEFV[Aib]WLEKEPSSGAPPPS-OH [Compound A20]
pEC50, cAMP accumulation [1]: 12.1 pEC50 (-log M)
pEC50, cAMP accumulation [2]: < 9 pEC50 (-log M)

YSHGTFTSDYSKYLDK([γGlu-γGlu-dpeg″-C20 diacid])KYAEKFVKWLEKEPSSGAPPPS-OH (lactam 20-24) [Compound A26]
pEC50, cAMP accumulation [1]: 11.1 pEC50 (-log M)
pEC50, cAMP accumulation [2]: < 9 pEC50 (-log M)

YSHGTFTSDYSKYLDK([γGlu-γGlu-dpeg″-C20 diacid])KYAEKFVKWLEDEPSSGAPPPS-OH (lactam 20-24) [Compound A21]
pEC50, cAMP accumulation [1]: 12.1 pEC50 (-log M)
pEC50, cAMP accumulation [2]: < 9 pEC50 (-log M)

B2: Compound A13 (peptide)
peptide: YSHGTFTSDYSKYLDK([γGlu-γGlu-C20 diacid])KYAQEFV[Aib]WLEDEPSSGAPPPS-OH
modifications: N-terminus assumed
SMILES: CC(C)C[C@H](NC(=O)[C@H](Cc1ccc(O)cc1)NC(=O)[C@H](CCCCN)NC(=O)[C@H](CO)NC(=O)[C@H](Cc1ccc(O)cc1)NC(=O)[C@H](CC(=O)O)NC(=O)[C@H](CO)NC(=O)[C@@H](NC(=O)[C@H](Cc1ccccc1)NC(=O)[C@@H](NC(=O)CNC(=O)[C@H](Cc1c[nH]cn1)NC(=O)[C@H](CO)NC(=O)[C@@H](N)Cc1ccc(O)cc1)[C@@H](C)O)[C@@H](C)O)C(=O)N[C@@H](CC(=O)O)C(=O)N[C@@H](CCCCNC(=O)CC[C@H](NC(=O)CC[C@H](NC(=O)CCCCCCCCCCCCCCCCCCC(=O)O)C(=O)O)C(=O)O)C(=O)N[C@@H](CCCCN)C(=O)N[C@@H](Cc1ccc(O)cc1)C(=O)N[C@@H](C)C(=O)N[C@@H](CCC(N)=O)C(=O)N[C@@H](CCC(=O)O)C(=O)N[C@@H](Cc1ccccc1)C(=O)N[C@H](C(=O)NC(C)(C)C(=O)N[C@@H](Cc1c[nH]c2ccccc12)C(=O)N[C@@H](CC(C)C)C(=O)N[C@@H](CCC(=O)O)C(=O)N[C@@H](CC(=O)O)C(=O)N[C@@H](CCC(=O)O)C(=O)N1CCC[C@H]1C(=O)N[C@@H](CO)C(=O)N[C@@H](CO)C(=O)NCC(=O)N[C@@H](C)C(=O)N1CCC[C@H]1C(=O)N1CCC[C@H]1C(=O)N1CCC[C@H]1C(=O)N[C@@H](CO)C(=O)O)C(C)C
pEC50, cAMP accumulation [1]: 12 pEC50 (-log M)
pEC50, cAMP accumulation [2]: < 9 pEC50 (-log M)
